Measurements: patent EP4786489A1, “IL-22 MUTANT, PREPARATION METHOD THEREFOR, AND USE THEREOF” (Nanjing Novoacine Biotechnology Co., Ltd., priority 2023, dated 2025)
Changes are numbered by the printed parent chain.

B1: wt IL-22 (ligand)
chain: APISSHCRLDKSNFQQPYITNRTFMLAKEASLADNNTDVRLIGEKLFHGVSMSERCYLMKQVLNFTLEEVLFPQSDRFQPYMQEVVPFLARLSNRLSTCHIEGDDLHIQRNVQKLKDTVKKLGESGEIKAIGELDLLFMSLRNACI
B2: 40K-PEG-IL22-D109C (ligand)
chain: B1 chain with D76C
modifications: Cys at position 76 (SEQ ID NO:1 numbering) conjugated to 40 kDa PEG-maleimide (thioether linkage)
B3: 40K-PEG-IL22-P50C (ligand)
chain: B1 chain with P17C
modifications: Cys at position 17 (SEQ ID NO:1 numbering) conjugated to 40 kDa PEG-maleimide (thioether linkage)
B4: 80K-PEG-IL22-P50C (ligand)
chain: B1 chain with P17C
modifications: Cys at position 17 (SEQ ID NO:1 numbering) conjugated to 80 kDa PEG-maleimide (thioether linkage)
B5: 40K-PEG-IL22-P120C (ligand)
chain: B1 chain with P87C
modifications: Cys at position 87 (SEQ ID NO:1 numbering) conjugated to 40 kDa PEG-maleimide (thioether linkage)
B6: 60K-PEG-IL22-P120C (ligand)
chain: B1 chain with P87C
modifications: Cys at position 87 (SEQ ID NO:1 numbering) conjugated to 60 kDa PEG-maleimide (thioether linkage)
B7: 60K-PEG-IL22-D109C (ligand)
chain: B1 chain with D76C
modifications: Cys at position 76 (SEQ ID NO:1 numbering) conjugated to 60 kDa PEG-maleimide (thioether linkage)
B8: 80K-PEG-IL22-D109C (ligand)
chain: B1 chain with D76C
modifications: Cys at position 76 (SEQ ID NO:1 numbering) conjugated to 80 kDa PEG-maleimide (thioether linkage)
B9: 80K-PEG-IL22-P120C (ligand)
chain: B1 chain with P87C
modifications: Cys at position 87 (SEQ ID NO:1 numbering) conjugated to 80 kDa PEG-maleimide (thioether linkage)
B10: 60K-PEG-IL22-P50C (ligand)
chain: B1 chain with P17C
modifications: Cys at position 17 (SEQ ID NO:1 numbering) conjugated to 60 kDa PEG-maleimide (thioether linkage)
B11: hB3-his (ligand)
chain: APISSHCRLDKENFQQPYITNRTFMLAKEASLADNNTDVRLIGEKLFHGVSMSERCYLMKQVLNFTLEEVLFPQSDRFQPYMAEVVPFLAALSNALSTCHIEGDDLHIQRNVQKLKDTVKKLGESGEIKAIGELDLLFMSLRNACIHHHHHH

What was measured:
Experiment in all cases: cell-based or functional assay
[1] = target: heterodimeric receptor complex (IL-22Rα/IL-10Rβ) (human) (UniProt Q8N6P7)
[2] = target: T1, heterodimeric receptor complex (IL-22Rα/IL-10Rβ) (human, UniProt Q8N6P7 16-574; Q08334 20-325)
T1 sequence (looked up) 1: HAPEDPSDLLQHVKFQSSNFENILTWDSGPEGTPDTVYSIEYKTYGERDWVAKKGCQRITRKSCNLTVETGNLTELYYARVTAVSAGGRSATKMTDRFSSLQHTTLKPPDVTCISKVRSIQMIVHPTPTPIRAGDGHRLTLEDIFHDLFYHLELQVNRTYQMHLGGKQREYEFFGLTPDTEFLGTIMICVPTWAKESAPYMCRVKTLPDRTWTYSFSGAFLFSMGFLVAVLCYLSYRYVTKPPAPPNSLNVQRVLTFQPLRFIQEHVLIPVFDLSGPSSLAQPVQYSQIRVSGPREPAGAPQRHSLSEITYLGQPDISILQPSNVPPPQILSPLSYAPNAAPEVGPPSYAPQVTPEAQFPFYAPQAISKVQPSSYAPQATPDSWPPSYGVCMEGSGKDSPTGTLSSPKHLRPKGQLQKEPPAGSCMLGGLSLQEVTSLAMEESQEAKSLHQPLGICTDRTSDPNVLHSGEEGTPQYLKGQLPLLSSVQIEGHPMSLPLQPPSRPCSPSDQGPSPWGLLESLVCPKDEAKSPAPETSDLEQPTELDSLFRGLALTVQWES
T1 sequence (looked up) 2: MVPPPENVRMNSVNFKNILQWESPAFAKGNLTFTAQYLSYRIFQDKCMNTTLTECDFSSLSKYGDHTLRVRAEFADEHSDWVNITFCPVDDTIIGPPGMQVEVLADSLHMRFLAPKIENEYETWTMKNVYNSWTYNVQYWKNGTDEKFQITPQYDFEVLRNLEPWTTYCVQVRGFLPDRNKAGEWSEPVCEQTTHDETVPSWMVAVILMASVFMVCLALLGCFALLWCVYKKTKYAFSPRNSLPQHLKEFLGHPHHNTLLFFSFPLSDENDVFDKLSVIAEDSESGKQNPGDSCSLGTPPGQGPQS

[3] = target: T1, heterodimeric receptor complex …; remark: listed apart in the source
[4] = target: T1, heterodimeric receptor complex …; remark: listed apart in the source
[5] = target: T1, heterodimeric receptor complex …; remark: listed apart in the source
[6] = target: T1, heterodimeric receptor complex …; remark: listed apart in the source

STAT1/STAT3 EC50 ratio (higher is better); FACS, HT29 cells [4] | STAT1 Activation EC50 (nM); pSTAT1 FACS, HT29 cells [4] | STAT3 Activation EC50 (nM); pSTAT3 FACS, HT29 cells [4] | further results | Molecule
 |  |  | EC50 for STAT1 Activation (nM); pSTAT1 FACS, HT-29 cells [1]: 49.9 nM; EC50 for STAT3 Activation (nM); pSTAT3 FACS, HT-29 cells [1]: 12.9 nM; HaCaT: HT29 ratio (higher is better); p-STAT3 EC50, FACS [1]: 5.8; STAT1/STAT3 EC50 ratio (higher is better); FACS, HT29 cells [1]: 3.2; STAT1/STAT3 EC50 ratio (higher is better); FACS, HT-29 cells [1]: 3.9; STAT1 Activation EC50 (nM); pSTAT1 FACS, HT29 cells [1]: 12.6 nM; STAT3 Activation EC50 (nM); pSTAT3 FACS, HT29 cells [1]: 3.9 nM; p-STAT3 EC50 (nM), HaCaT; FACS [1]: 22.7 nM | IL-22-Fc (Fc fusion)
 |  |  | STAT1/STAT3 Ratio (higher is better); ELISA, COLO205 cells [2]: 1; STAT1 Activation EC50 (nM); p-STAT1 ELISA, COLO205 cells [2]: 0.939 nM; STAT1 Activation, Fold change relative to wt IL-22; p-STAT1 ELISA, COLO205 cells [2]: 1 fold; STAT3 Activation EC50 (nM); p-STAT3 ELISA, COLO205 cells [2]: 0.0663 nM; STAT3 Activation, Fold change relative to wt IL-22; p-STAT3 ELISA, COLO205 cells [2]: 1 fold; EC50 fold change of the test candidate relative to wt IL-22; STAT3 reporter gene assay, COLO205/SIE cells (Assay1) [3]: 1 fold; EC50 fold change of the test candidate relative to wt IL-22; STAT3 reporter gene assay, COLO205/SIE cells (Assay2) [3]: 1 fold; EC50 for STAT3 Activation (nM); STAT3 reporter gene assay, COLO205/SIE cells (Assay1) [3]: 0.00529 nM; EC50 for STAT3 Activation (nM); STAT3 reporter gene assay, COLO205/SIE cells (Assay2) [3]: 0.00303 nM | B1
31.3 | 10.9 nM | 0.348 nM |  | B2
7.8 | 369 nM | 47.5 nM |  | B3
3.3 | 62.3 nM | 18.9 nM |  | B4
9.1 | 55.3 nM | 6.05 nM |  | B5
7.6 | 86.2 nM | 11.4 nM | HaCaT: HT29 ratio (higher is better); p-STAT3 EC50, FACS [5]: 37.7; p-STAT3 EC50 (nM), HaCaT; FACS [5]: 428 nM | B6
16.3 | 9.41 nM | 0.577 nM | HaCaT: HT29 ratio (higher is better); p-STAT3 EC50, FACS [5]: 12.9; p-STAT3 EC50 (nM), HaCaT; FACS [5]: 7.44 nM | B7
7.1 | 7 nM | 0.984 nM |  | B8
29 | 574 nM | 19.8 nM |  | B9
2.4 | 134 nM | 55.5 nM |  | B10
9.3 | 23 nM | 2.47 nM | STAT1/STAT3 Ratio (higher is better); ELISA, COLO205 cells [2]: 2.34; STAT1 Activation EC50 (nM); p-STAT1 ELISA, COLO205 cells [2]: 17.4 nM; STAT1 Activation, Fold change relative to wt IL-22; p-STAT1 ELISA, COLO205 cells [2]: 18.5 fold; STAT3 Activation EC50 (nM); p-STAT3 ELISA, COLO205 cells [2]: 0.525 nM; STAT3 Activation, Fold change relative to wt IL-22; p-STAT3 ELISA, COLO205 cells [2]: 7.92 fold; EC50 for STAT1 Activation (nM); pSTAT1 FACS, HT-29 cells [6]: 279 nM; EC50 for STAT3 Activation (nM); pSTAT3 FACS, HT-29 cells [6]: 4.13 nM; STAT1/STAT3 EC50 ratio (higher is better); FACS, HT-29 cells [6]: 67.5 | B11
